Results as given in the supplement of paper PMC11865577.

Legend:
Experiment in all cases: pull-down binding Z-score (relative to library population); higher = stronger binding
Conditions in all cases: RNA library: Library-2
[1] = system: TO-3-N3 (biotin conjugate)
In short: (§1)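 Heat-folded RNA library (1 μg, Cy5 or Cy3 end label, phosphate/NaCl/KCl buffer) was captured for 60 min at 25 °C on streptavidin beads displaying 100 pmol of biotin-conjugated small molecule, then washed three times. The bound fraction, eluted in hot SDS, was hybridised to a DNA barcode microarray at 55.5 °C for 20 h. Z-scores for binding were taken against the library mean and standard deviation after beads-only subtraction and trimmed averaging of replicate barcoded probes.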

[2] = system: TO-3-N3-2 (biotin conjugate)
In short: as §1

TO-N3 (biotin conjugate) = system: TO-N3 (biotin conjugate)
In short: as §1

[3] = system: TO-N3-2 (biotin conjugate)
In short: as §1

Row | Sequence | pull-down binding Z-score [1] | pull-down binding Z-score [2] | pull-down binding Z-score (TO-N3 (biotin conjugate)) | pull-down binding Z-score [3]
1 | GGUGUUGUUGGAGAAGGUUCCGAAGGUCUUAAUGACAACCUUCUUGAAAUACUCC | 0.245 | 0.0401 | 0.261 | 0.062
2 | GGUGUUUAUUACC | -0.454 | -0.382 | -0.968 | -0.855
3 | GGUGUUUUAACU | -0.133 | -0.285 | -0.303 | -0.847
4 | GGUGUUUUAACUGCUGUGGUUAUACCUACUAAAAAGGCUGGUGGCACUACUGAAAUGCU | -0.83 | -0.12 | -0.521 | -0.153
5 | GGUUAUAAGAAACC | -0.083 | -0.849 | -0.351 | -0.964
6 | GGUUCAACUCUCCCUAGGAGGUCUGGAGCC [IAV_invivo_NP_5_Motif_11+IAV_invivo_NP_5_Motif_11] | -0.418 | -0.309 | -0.225 | 0.0598
7 | GGUUCACUAUAUGUUAAACCAGGUGGAACC | 0.612 | 0.221 | 0.506 | -0.369
8 | GGUUCGUGUCUUUAGCUAUAGAUGCUUACC | 0.877 | 0.206 | 0.913 | -0.066
9 | GGUUGGGAAAUUGUUAAAUUUAUCUCAACC | -0.472 | -0.155 | -0.616 | -0.802
10 | GGUUGGGAGAAGAGCAACAGCC [IAV_invivo_PB2_1_Motif_16+IAV_invivo_PB2_1_Motif_16] | 0.351 | 0.479 | 0.776 | 1.09
11 | GGUUGUAUGGUACAAGUAACUUGUGGUACAACU | -0.51 | -0.128 | -0.61 | -0.264
12 | GGUUUAACUUCUAUUAAAUGGGCAGAUAACAACUGUUAUCUUGCCACUGCAUUGUUAACACUCCAACAAAUAGAGUUGAAGUUUAAUCC | -0.726 | -0.273 | -0.793 | -0.63
13 | GGUUUAGCUGCUGUUAAUAGUGUCCCUUGGGAUACUAUAGCUAAUUAUGCUAAGCC | 0.621 | -0.323 | 0.141 | -0.225
14 | GGUUUAUACCUUCCCAGGUAACAAACC | -0.697 | -0.582 | -0.928 | -1.05
15 | GGUUUGUUACAGACACACC [SHAPE_invivo_SARS-CoV-2_Motif_243] | -0.427 | -0.488 | -0.748 | -0.785
16 | GGUUUGUUGCC [IAV_invivo_PB1_2_Motif_26+IAV_invivo_PB1_2_Motif_26] | 0.00909 | -0.261 | -0.146 | -0.374
17 | GGUUUUAUAGCUGGCUUGAUUGCCAUAGUAAUGGUGACAAUUAUGCUUUGCUGUAUGACC | -0.96 | -0.541 | -0.717 | -0.582
18 | GUAAAUUUACUUAC [DMSMaPseq_invitro_SARS-CoV-2_Motif_170] | 0.655 | -0.105 | 0.563 | -0.635

Row | Sequence | pull-down binding Z-score [1] | pull-down binding Z-score [2] | pull-down binding Z-score (TO-N3 (biotin conjugate)) | pull-down binding Z-score [3]
19 | GUAAGAGAAUUCCUUAC | -0.366 | -0.0559 | -0.531 | -0.727
20 | GUAAUGAUCCAUUUUUGGGUGUUUAUUAC [DMSMaPseq_invitro_SARS-CoV-2_Motif_387] | -0.1 | -0.129 | -0.308 | -0.998
21 | GUACAUACAGCUAAUAAAUGGGAUCUCAUUAUUAGUGAUAUGUAC | -0.823 | -0.167 | -0.621 | 0.426
22 | GUACAUGGGCACACUUUCUUAUGAACAAUUUAAGAAAGGUGUUCAGAUAC [DMSMaPseq_invitro_SARS-CoV-2_Motif_106] | -0.377 | 0.0305 | -0.353 | -0.639
23 | GUACAUGGGCACACUUUCUUAUGAACAAUUUAAGAAAGGUGUUCAGAUACCUUGUAC [SHAPE_invitro_SARS-CoV-2_Motif_110] | -0.767 | -0.44 | -1.06 | -1.11
24 | GUACCAAAGGUGC [IAV_invivo_PB1_2_Motif_35+IAV_invivo_PB1_2_Motif_35] | -0.101 | -0.26 | -0.215 | -0.382
25 | GUACCUCAAGCUGAUGUAGAAUGGAAGUUCUAUGAUGCACAGCCUUGUAGUGAC [SHAPE_invitro_SARS-CoV-2_Motif_348] | -0.418 | -0.203 | -0.178 | 0.735
26 | GUACGAUCGAGUGUAC [DMSMaPseq_invitro_SARS-CoV-2_Motif_538] | 0.143 | -0.222 | 0.105 | 0.0595
27 | GUACUUAAUGAGAAGUGC [SHAPE_invivo_SARS-CoV-2_Motif_56] | -0.216 | -0.138 | -0.461 | -0.836
28 | GUACUUGGUAGUUUAGCUGCCACAGUAC | -0.525 | -0.291 | -0.688 | -0.818
29 | GUAGACAAUUCUAGUCUUAC [SHAPE_invitro_SARS-CoV-2_Motif_131] | 0.702 | -0.243 | 0.441 | -0.316
30 | GUAGAGGAGGCAAAGACAGUGCUUAAAAAGUGUAAAAGUGCCUUUUAC | -0.449 | 0.448 | -0.193 | 0.576
31 | GUAUCUGAAUUAC | 0.0447 | -0.196 | -0.136 | -0.281
32 | GUAUGAGCAGUAUAU [DMSMaPseq_invitro_SARS-CoV-2_Motif_451] | -0.638 | -0.295 | -0.709 | -0.416
33 | GUCAAAGUGAC [SHAPE_invivo_SARS-CoV-2_Motif_385] | -0.196 | -0.543 | -0.434 | -0.851
34 | GUCAAAGUGACUAUUGAC [SHAPE_invitro_SARS-CoV-2_Motif_373] | -0.385 | -0.444 | -0.53 | -0.385
35 | GUCACACCUUCGGGAACGUGGUUGAC | -0.558 | -0.338 | -0.0943 | 0.518
